The record followed here is patent US10562947B2, “Compositions and methods for preventing or treating diseases, conditions or processes characterized by aberrant fibroblast proliferation and extracellular matrix deposition” (MOERAE MATRIX, INC., priority 2011, dated 2020).

Common to all, as to experiment: Kinase Profiling Assay
Assay type in all cases: biochemical
Details in all cases: 100 μM peptide

One assay addresses FAK(h) (Homo sapiens, UniProt Q05397). In outline:
(§1)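 In duplicate, the activities of 266 available human kinases were determined with MK2 inhibitory peptides present, as a measure of peptide selectivity.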

Another assay addresses T1, TAO2(h) (Homo sapiens, UniProt Q9UL54).
T1 sequence (Q9UL54 1-1235): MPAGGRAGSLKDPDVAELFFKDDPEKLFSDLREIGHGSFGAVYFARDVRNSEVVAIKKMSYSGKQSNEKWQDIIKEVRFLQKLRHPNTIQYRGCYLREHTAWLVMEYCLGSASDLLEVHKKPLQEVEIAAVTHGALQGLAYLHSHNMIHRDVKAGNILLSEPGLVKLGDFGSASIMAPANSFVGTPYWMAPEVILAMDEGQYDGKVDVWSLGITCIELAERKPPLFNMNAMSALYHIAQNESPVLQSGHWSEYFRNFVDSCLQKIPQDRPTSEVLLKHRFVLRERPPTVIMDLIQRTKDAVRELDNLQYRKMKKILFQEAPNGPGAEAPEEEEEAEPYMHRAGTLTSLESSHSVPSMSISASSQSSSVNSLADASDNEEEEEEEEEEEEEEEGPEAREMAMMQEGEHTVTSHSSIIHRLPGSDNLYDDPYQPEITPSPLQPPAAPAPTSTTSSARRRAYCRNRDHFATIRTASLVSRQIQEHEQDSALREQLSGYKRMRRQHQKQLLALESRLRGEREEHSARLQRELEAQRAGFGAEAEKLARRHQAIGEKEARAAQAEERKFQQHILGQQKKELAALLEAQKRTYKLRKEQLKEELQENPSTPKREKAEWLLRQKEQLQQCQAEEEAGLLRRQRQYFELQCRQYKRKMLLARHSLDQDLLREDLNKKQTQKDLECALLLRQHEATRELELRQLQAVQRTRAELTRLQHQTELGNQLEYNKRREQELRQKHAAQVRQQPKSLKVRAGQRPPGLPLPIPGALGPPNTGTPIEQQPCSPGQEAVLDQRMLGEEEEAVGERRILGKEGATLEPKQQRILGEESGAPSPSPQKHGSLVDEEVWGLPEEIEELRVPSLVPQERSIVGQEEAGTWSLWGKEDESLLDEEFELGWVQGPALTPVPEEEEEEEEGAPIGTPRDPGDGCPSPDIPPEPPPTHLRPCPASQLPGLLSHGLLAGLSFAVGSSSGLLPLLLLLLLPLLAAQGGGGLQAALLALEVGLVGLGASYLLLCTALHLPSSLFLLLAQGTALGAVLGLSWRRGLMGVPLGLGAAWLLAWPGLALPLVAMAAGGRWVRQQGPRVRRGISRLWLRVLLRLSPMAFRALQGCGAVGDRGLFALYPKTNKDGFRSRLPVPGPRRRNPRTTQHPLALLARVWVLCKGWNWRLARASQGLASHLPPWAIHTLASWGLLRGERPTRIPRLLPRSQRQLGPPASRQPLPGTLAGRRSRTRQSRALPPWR
An outline of the steps: as §1

Another assay deals with Fer(h) (Homo sapiens, UniProt P16591). In outline: as §1
A further assay has as its target SAPK2a(T106M)(h) (Homo sapiens, UniProt Q16539, T106M). In outline:
as §1

The next assay addresses ErbB4(h) (Homo sapiens, UniProt Q15303). In outline:
as §1

A further assay concerns the target p70S6K(h) (Homo sapiens, UniProt P23443). In outline: as §1
The target of another assay is BTK(h) (Homo sapiens, UniProt Q06187). An outline of the steps:
as §1

In a further assay the target is T2, EphB3(h) (Homo sapiens, UniProt P54753).
T2 sequence (P54753 34-998): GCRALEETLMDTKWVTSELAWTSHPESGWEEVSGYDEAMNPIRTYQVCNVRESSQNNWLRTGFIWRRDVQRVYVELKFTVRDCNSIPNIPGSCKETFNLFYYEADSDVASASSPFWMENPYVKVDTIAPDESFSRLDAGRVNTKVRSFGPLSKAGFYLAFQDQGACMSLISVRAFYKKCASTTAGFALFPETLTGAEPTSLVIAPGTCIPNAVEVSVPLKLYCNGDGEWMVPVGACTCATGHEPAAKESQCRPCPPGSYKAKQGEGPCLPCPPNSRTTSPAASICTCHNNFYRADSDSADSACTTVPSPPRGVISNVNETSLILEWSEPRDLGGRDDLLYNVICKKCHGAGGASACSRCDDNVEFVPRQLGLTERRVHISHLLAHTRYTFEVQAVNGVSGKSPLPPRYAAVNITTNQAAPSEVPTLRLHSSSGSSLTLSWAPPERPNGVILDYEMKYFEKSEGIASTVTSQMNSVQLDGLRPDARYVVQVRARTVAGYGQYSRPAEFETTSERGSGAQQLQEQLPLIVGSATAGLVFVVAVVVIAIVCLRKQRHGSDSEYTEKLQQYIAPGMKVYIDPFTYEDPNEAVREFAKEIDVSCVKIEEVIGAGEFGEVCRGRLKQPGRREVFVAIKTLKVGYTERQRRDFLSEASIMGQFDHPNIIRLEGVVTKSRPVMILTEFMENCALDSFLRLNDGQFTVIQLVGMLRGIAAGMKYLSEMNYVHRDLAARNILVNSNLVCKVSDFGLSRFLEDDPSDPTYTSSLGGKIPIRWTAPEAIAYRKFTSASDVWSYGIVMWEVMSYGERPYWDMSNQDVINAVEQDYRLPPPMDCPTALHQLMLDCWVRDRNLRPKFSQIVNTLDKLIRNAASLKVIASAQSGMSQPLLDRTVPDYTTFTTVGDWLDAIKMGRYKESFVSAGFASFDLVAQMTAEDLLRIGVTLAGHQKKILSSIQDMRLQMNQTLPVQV
An outline of the steps:
as §1

In another assay the target is EGFR(L861Q)(h) (Homo sapiens, UniProt P00533, L861Q). An outline of the steps:
as §1

Another assay has as its target Axl(h) (Homo sapiens, UniProt P30530). An outline of the steps: as §1

Chain of ErbB4(h) (Q15303 26-1308): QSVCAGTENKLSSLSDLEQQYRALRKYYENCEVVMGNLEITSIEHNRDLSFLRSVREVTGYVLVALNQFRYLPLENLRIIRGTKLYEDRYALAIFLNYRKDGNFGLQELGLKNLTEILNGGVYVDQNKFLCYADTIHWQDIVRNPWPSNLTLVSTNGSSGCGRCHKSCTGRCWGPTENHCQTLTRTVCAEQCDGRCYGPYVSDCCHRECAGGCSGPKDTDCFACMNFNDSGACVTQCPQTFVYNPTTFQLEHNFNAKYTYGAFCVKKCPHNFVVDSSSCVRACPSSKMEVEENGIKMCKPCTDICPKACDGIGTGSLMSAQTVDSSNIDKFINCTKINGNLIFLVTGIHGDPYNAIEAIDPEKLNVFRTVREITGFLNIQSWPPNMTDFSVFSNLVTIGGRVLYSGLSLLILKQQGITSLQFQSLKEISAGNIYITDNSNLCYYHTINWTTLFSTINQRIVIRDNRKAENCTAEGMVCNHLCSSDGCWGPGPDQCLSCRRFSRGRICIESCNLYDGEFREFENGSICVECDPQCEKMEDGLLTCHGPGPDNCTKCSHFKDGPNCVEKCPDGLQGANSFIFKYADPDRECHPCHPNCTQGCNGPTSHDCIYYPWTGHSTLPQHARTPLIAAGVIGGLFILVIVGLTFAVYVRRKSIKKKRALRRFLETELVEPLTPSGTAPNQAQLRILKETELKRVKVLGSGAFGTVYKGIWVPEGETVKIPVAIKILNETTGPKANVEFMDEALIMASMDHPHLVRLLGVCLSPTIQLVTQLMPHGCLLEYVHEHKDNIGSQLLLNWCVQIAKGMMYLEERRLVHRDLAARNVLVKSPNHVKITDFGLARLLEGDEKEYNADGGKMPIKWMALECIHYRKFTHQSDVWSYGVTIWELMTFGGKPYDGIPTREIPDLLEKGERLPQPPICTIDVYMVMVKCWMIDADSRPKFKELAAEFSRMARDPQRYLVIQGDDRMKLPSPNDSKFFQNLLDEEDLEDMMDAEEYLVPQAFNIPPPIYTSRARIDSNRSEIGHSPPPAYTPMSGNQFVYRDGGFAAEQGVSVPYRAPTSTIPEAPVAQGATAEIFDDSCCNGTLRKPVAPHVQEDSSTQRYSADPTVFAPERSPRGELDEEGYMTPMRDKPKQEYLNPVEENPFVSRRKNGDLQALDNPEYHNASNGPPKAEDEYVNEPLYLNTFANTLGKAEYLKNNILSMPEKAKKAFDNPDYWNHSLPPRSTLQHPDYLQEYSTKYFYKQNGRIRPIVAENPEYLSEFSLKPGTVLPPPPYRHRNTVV
Chain of FAK(h) (Q05397 whole entry): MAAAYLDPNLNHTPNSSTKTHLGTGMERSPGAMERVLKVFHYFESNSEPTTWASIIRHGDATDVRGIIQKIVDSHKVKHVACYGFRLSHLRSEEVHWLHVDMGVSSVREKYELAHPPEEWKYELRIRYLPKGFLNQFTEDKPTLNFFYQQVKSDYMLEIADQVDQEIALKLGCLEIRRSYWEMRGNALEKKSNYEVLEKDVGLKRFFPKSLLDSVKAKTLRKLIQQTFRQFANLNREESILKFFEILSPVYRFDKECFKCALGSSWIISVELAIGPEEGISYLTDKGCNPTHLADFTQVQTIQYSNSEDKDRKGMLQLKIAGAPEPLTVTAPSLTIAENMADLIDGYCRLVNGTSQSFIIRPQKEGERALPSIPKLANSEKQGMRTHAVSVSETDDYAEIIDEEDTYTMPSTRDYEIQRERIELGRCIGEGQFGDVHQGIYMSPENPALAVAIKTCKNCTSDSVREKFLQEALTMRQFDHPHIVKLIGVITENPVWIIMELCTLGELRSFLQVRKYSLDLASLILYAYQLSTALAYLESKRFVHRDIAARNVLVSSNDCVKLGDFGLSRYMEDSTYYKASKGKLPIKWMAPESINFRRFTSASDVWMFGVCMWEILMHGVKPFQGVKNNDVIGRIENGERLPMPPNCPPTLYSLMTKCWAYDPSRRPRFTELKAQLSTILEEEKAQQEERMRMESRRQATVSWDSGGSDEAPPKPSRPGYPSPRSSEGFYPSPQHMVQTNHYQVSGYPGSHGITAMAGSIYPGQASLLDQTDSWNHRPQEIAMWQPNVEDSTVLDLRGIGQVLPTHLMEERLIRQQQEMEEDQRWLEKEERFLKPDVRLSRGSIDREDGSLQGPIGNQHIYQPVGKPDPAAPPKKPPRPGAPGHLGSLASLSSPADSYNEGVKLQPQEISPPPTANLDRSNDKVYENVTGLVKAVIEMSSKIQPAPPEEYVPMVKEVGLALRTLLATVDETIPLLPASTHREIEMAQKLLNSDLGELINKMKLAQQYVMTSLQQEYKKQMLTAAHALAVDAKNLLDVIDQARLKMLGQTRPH
Chain of BTK(h) (Q06187 whole entry): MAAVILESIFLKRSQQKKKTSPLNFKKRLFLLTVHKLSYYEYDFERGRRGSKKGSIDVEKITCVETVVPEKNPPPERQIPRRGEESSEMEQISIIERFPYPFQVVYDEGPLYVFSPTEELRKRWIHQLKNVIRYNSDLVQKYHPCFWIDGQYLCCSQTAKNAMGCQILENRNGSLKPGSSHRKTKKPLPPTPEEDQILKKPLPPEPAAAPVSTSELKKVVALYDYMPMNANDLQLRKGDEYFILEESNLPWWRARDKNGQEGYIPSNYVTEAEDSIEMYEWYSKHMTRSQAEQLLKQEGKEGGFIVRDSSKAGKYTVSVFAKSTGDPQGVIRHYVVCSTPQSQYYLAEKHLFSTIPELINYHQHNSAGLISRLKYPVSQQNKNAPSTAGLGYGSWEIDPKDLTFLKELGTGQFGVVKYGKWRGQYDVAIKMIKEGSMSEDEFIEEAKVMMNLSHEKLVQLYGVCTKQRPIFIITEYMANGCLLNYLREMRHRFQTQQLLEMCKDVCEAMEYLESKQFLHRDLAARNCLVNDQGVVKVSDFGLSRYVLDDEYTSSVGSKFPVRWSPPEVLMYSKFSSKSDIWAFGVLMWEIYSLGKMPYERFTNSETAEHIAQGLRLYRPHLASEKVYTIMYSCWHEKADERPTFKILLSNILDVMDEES
Chain of Fer(h) (P16591 whole entry): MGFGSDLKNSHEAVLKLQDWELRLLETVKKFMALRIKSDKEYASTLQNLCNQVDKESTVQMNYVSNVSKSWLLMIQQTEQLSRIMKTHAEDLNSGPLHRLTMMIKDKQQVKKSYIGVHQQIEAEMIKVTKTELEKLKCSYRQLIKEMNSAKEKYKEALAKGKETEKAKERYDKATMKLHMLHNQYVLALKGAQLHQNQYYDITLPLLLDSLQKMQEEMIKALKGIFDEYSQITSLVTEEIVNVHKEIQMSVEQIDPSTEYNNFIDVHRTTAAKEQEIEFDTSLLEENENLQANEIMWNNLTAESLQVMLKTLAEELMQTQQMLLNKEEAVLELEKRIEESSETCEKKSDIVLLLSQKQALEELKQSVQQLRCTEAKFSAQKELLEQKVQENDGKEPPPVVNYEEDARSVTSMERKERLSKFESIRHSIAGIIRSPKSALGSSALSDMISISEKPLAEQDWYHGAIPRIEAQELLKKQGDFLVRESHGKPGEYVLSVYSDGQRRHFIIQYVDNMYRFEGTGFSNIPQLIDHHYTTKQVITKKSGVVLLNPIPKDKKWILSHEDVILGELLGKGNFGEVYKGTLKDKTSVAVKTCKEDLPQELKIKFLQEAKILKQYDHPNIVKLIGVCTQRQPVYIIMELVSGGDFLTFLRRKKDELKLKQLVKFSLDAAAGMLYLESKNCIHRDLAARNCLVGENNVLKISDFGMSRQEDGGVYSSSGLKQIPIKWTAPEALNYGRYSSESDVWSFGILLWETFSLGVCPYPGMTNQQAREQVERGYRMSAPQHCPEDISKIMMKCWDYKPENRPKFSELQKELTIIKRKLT
Chain of SAPK2a(T106M)(h) (Q16539 whole entry T106M): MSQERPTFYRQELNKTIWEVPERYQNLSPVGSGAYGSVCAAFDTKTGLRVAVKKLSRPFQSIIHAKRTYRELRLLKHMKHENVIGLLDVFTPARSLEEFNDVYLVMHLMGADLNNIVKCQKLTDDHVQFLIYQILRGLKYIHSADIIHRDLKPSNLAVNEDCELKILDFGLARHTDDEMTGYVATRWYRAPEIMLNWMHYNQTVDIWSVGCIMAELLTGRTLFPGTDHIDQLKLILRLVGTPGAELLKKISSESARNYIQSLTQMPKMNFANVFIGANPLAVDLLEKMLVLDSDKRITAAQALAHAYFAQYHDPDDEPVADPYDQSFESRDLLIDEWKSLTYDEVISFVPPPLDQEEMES
Chain of p70S6K(h) (P23443 whole entry): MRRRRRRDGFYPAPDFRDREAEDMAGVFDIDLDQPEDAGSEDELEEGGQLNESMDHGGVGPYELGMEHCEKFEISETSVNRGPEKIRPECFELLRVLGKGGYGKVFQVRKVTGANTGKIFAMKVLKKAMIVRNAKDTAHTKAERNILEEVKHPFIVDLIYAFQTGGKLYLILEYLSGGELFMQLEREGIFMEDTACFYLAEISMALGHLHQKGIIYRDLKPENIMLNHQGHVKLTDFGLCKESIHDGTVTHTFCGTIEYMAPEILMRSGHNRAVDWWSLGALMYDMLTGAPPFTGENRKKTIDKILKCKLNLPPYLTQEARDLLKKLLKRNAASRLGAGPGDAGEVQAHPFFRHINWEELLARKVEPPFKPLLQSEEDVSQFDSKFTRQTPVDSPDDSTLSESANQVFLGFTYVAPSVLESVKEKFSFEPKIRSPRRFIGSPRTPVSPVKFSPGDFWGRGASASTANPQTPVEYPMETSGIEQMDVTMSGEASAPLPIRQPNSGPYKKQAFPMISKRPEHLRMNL

“YARAAARQARAKALNRQLGVA (Mammalian) [MMI-0200]”: in the assay with FAK(h), the “FAK(h) % activity” value was 110%. Besides, the “TAO2(h) % activity” value with TAO2(h) is 93%. In addition, the “Fer(h) % activity” value with Fer(h) came to 101%. Further, the “SAPK2a(T106M)(h) % activity” value with SAPK2a(T106M)(h) is 100%. Further, the “ErbB4(h) % activity” value in the assay with ErbB4(h) amounted to 82%. For the same sequence, the “p70S6K(h) % activity” value with p70S6K(h) was 84%. Besides, the “BTK(h) % activity” value with BTK(h) is given as 100%. Moreover, the “EphB3(h) % activity” value in the assay with EphB3(h) came to 128%. In the assay with EGFR(L861Q)(h), the “EGFR(L861Q)(h) % activity” value is reported as 74%. The “Axl(h) % activity” value with Axl(h) was found to be 99%.
Consider “HRRIKAWLKKIKALARQLGVAA (Mammalian) [MMI-0500]”, for which the “FAK(h) % activity” value in the assay with FAK(h) was 94%. For the same sequence, the “TAO2(h) % activity” value with TAO2(h) is 15%. Moreover, the “Fer(h) % activity” value with Fer(h) was found to be 196%. Further, the “SAPK2a(T106M)(h) % activity” value in the assay with SAPK2a(T106M)(h) amounted to 32%. Further, the “ErbB4(h) % activity” value with ErbB4(h) was 2%. Moreover, in the assay with p70S6K(h), the “p70S6K(h) % activity” value worked out at 3%. In addition, the “BTK(h) % activity” value with BTK(h) was 18%. Besides, the “EphB3(h) % activity” value with EphB3(h) worked out at 79%. Further, in the assay with EGFR(L861Q)(h), the “EGFR(L861Q)(h) % activity” value is recorded as 15%. Also, in the assay with Axl(h), the “Axl(h) % activity” value is 12%.
Turning to KAFAKLAARLYRKALARQLGVAA [MMI-0400], the “FAK(h) % activity” value with FAK(h) came to 96%. In addition, the “TAO2(h) % activity” value with TAO2(h) is 74%. Also, the “Fer(h) % activity” value with Fer(h) is listed as 108%. Besides, the “SAPK2a(T106M)(h) % activity” value with SAPK2a(T106M)(h) is on record as 99%. Further, the “ErbB4(h) % activity” value with ErbB4(h) worked out at 0%. Further, the “p70S6K(h) % activity” value in the assay with p70S6K(h) turned out to be 33%. Also, the “BTK(h) % activity” value with BTK(h) is given as 94%. Besides, the “EphB3(h) % activity” value in the assay with EphB3(h) was 47%. Moreover, the “EGFR(L861Q)(h) % activity” value with EGFR(L861Q)(h) is listed as 22%. For the same sequence, the “Axl(h) % activity” value in the assay with Axl(h) was 41%.
With FAKLAARLYRKALARQLGVAA [MMI-0300], the “TAO2(h) % activity” value with TAO2(h) was determined as 70%. Further, in the assay with Fer(h), the “Fer(h) % activity” value is 130%. In the assay with SAPK2a(T106M)(h), the “SAPK2a(T106M)(h) % activity” value amounted to 97%. Besides, the “ErbB4(h) % activity” value in the assay with ErbB4(h) was found to be 40%. Moreover, the “p70S6K(h) % activity” value with p70S6K(h) turned out to be 35%. For the same sequence, in the assay with EphB3(h), the “EphB3(h) % activity” value is listed as 62%. The “EGFR(L861Q)(h) % activity” value with EGFR(L861Q)(h) was 25%. For the same sequence, in the assay with Axl(h), the “Axl(h) % activity” value amounted to 52%.
